Assay results as given in the supplement of paper PMC9170038.

System: MS2 coat protein
Assay: apparent KD of MS2 coat protein; designed switch direction (-1 OFF switch, 1 ON switch): -1; higher = weaker reporter binding
Summary of the method: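 Transcription of designed RNA switches on Illumina chips was done by stalled E. coli RNA polymerase. SNAP-549-labelled MS2 coat protein was then titrated in doubling steps from 0.7 or 1.5 nM to 3 µM, with steps of 0.8–1.5 h at the lowest and 10–20 min at the highest concentration. The per-design median over clusters of curve-fitted normalised fluorescence is reported as apparent KD.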

[1] = input ligand: microRNA oligo, concentration not stated
[2] = Eterna round: R95, input ligand: microRNA oligo, concentration not stated
[3] = Eterna round: R95, input ligand: FMN 200 uM
[4] = Eterna round: R95, input ligand: none

Row | Sequence | apparent KD of MS2 coat protein (input ligand: FMN 200 uM) | apparent KD of MS2 coat protein (input ligand: none) | other results
1 | AAUUAUUGAUGAGGAUAUUGUGGUGAAACACGACAAGAAGGCAUUAUUCACAUGAGGAUCACCCAUGUGAGCCUGAUGCAUAUA [Ex NG1 #60] (Eterna round: R96, puzzle: Exclusion NG 1) |  |  | apparent KD of MS2 coat protein [1]: 11.5 nM
2 | AAUUAUUGAUGAGGAUAUUGUGGUGAAACACGACAAGAAGGCAUUAUUCACAUGAGGAUCACCCAUGUGAGCCUGGUGCAUAUA [Ex NG1 #61] (Eterna round: R96, puzzle: Exclusion NG 1) |  |  | apparent KD of MS2 coat protein [1]: 11.6 nM
3 | AAUUAUUGAUGAGGAUAUUGUGGUGAAACACGACGAGAAGGCAUAUGUCACAUGAGGAUCACCCAUGUGAGCCUUGUGGAUAUA [Ex NG1 #65] (Eterna round: R96, puzzle: Exclusion NG 1) |  |  | apparent KD of MS2 coat protein [1]: 43.5 nM
4 | AAUUAUUGAUGAGGAUAUUGUGGUGAAACACGACGAGAAGGCAUUUGUCACAUGAGGAUCACCCAUGUGAGCCUUGUGCAUAUA [Ex NG1 #63] (Eterna round: R96, puzzle: Exclusion NG 1) | 25.2 nM | 15.1 nM | apparent KD of MS2 coat protein [1]: 18.7 nM
5 | AAUUAUUUAUGAGGAUAUUGUGGUGAAACACCACAAGAAGGCAUGAUACACAUGAGGAUCACCCAUGUGAGCCUGAUGCUUAUG [Ex NG1 #54] (Eterna round: R96, puzzle: Exclusion NG 1) |  |  | apparent KD of MS2 coat protein [1]: 13.7 nM
6 | AAUUAUUUUUGAGGAUAUGGUGGUGAAACACCACCAGAAGGCGGAAUAAACAUGAGGAUCACCCAUGUGAGCCUGAUGCUUAUG [Ex NG1 #47] (Eterna round: R96, puzzle: Exclusion NG 1) |  |  | apparent KD of MS2 coat protein [1]: 17.5 nM
7 | AAUUCACAAGCGAGAUCCCACAUGAGGAUCACCCAUGUGCUCGUCUUAUAAGGUACUGUGACGAUAGUCACGGUACC [Mat - Sensor, turn-off var - Eli Mod - D87] (Eterna round: R97, puzzle: Sensor, turn-off variant 1) | 16.4 nM | 16.1 nM | 
8 | AAUUCACAUGAGGAUCACCCAUGUCAGGAUAUGGUUACGCGGGUUUCGGUGCGUGUGGCCAGAAGGGACAGCUA (puzzle: Exclusion 1) |  |  | apparent KD of MS2 coat protein [2]: 54.6 nM
9 | AAUUCCAAGCUCAACGUUCACAUGAGGAUCACCCAUGUCAUGAGCUGUUAUAAGUUCGGAUGUUAUAUUUUGCUCGU [Eternabot (L2) Solution 12] (Eterna round: R97, puzzle: Sensor, turn-off variant 1) | 14.6 nM | 15 nM | 
10 | AAUUGCUAGCCGAUCCUCCACAUGAGGAUCACCCAUGUGCUUGUCUUGUAAUGUACUAUCACGAAAGUGAUAGUACA [Sensor v3, turn-off variant 1 (MOD of Eli's v1-59 v.5)] (puzzle: Sensor v3, turn-off variant 1) |  |  | apparent KD of MS2 coat protein [3]: 44.7 nM; apparent KD of MS2 coat protein [2]: 54.7 nM; apparent KD of MS2 coat protein [4]: 43.2 nM
11 | AAUUUACAUGAGGAUCACCCAUGUCAGGAUAUGGUUUUAUUUUUUUCUUUUCUUGAUUCCAGAAGGGACAGCUA (puzzle: Exclusion 1) |  |  | apparent KD of MS2 coat protein [2]: 82.2 nM
12 | AAUUUACAUGAGGAUCACCCAUGUGAGGAUAUAUAUAUAUAUUUGUUAUUGUGUGUGUGUAGAAGGCGCGUGAU [JR_Exc1_Sub034] (Eterna round: R97, puzzle: Exclusion 1) | 33.3 nM | 42.2 nM | 
13 | AAUUUACAUGAGGAUCACCCAUGUGAGGAUAUAUGCAAAUAAUUUUUAUUAAUAAAGCAUAGAAGGCGCGUGAU [JR_Exc1_Sub042] (Eterna round: R97, puzzle: Exclusion 1) | 188 nM | 73 nM | 
14 | AAUUUGCAAGCGAGAUCCCACAUGAGGAUCACCCAUGUGCUCGUCUUAUAAGGUACUGUGACGAAAGUCACGGUACC [Mat - Sensor, turn-off var - Eli Mod - D92] (Eterna round: R97, puzzle: Sensor, turn-off variant 1) | 16.4 nM | 12.9 nM | 
15 | AAUUUGUCAGGAUAUUGUUAGUUUAGUUGUUUGUAUUAGUUCGAGAAGGGACAUGAGGAUCACCCAUGUGAAAA [Ex4 #70] (Eterna round: R97, puzzle: Exclusion 4) | 39.2 nM | 53.4 nM | 
16 | ACAAGAAUUUUGCUCGUAAAGUAGGAACGCGAGAGCGGGACAUGAGGAUCACCCAUGUAGAGGCAGUUGGUGGAGAU [JR_SV3TOV2_Sub029] (puzzle: Sensor v3, turn-off variant 2) |  |  | apparent KD of MS2 coat protein [3]: 42.2 nM; apparent KD of MS2 coat protein [2]: 56 nM; apparent KD of MS2 coat protein [4]: 43.4 nM

Row | Sequence | apparent KD of MS2 coat protein (input ligand: FMN 200 uM) | apparent KD of MS2 coat protein (input ligand: none) | other results
17 | ACAAGCAAGACAGGAUAUACGAAGCACGUUGUGGUCUGUGACAUGAGGAUCACCCAUGUGUGAGAGUAGAAGGGUUUUGAUCCC [Edarenraat] (Eterna round: R96, puzzle: Exclusion NG 2) | 1140 nM | 828 nM | apparent KD of MS2 coat protein [1]: 685 nM
18 | ACAAGCAGAGGUGUGCGACACAUGAGGAUCACCCAUGUCGUCUGCCUCUGUGCAGAGGCUUUUUGCUCGUACUUAUU [Sensor V1 S3] (Eterna round: R97, puzzle: Sensor, turn-off variant 1) | 20.1 nM | 19.3 nM | 
19 | ACAAGCUAUCUCUUAUCUUACAUGAGGAUCACCCAUGUUUUUUCAAUUUUGUUUGGUCUCCUUUGUGCUCGUCUUAU [JR_STOV1_Sub053] (Eterna round: R97, puzzle: Sensor, turn-off variant 1) | 53.2 nM | 55.2 nM | 
20 | ACAAGCUGGCUCGUCUUAUACAUGAGGAUCACCCAUGUUCUCAAGGUCUUAUGUACUGACACGAAAGUGUUAGUAAU [AK-miRNA-r3-2] (Eterna round: R97, puzzle: Sensor, turn-off variant 1) | 29.8 nM | 30.2 nM | 
21 | ACAAGCUUAAAAGGUGAUAACAUGAGGAUCACCCAUGUUCGUCUUAUAAAGAUCCUAUGUCGAAAGACGUAGGAUCA [Sensor 3, v1 - 69] (puzzle: Sensor v3, turn-off variant 1) |  |  | apparent KD of MS2 coat protein [3]: 21.2 nM; apparent KD of MS2 coat protein [2]: 28 nM; apparent KD of MS2 coat protein [4]: 22 nM
22 | ACAAGCUUUGAUAUCCUUAACAUGAGGAUCACCCAUGUUCGUCUUAUGAUGGUCUGAUCCCUGAGGAUCGGACCGUU [JL-sv1-2.08 Brourd Mod] (puzzle: Sensor v3, turn-off variant 1) |  |  | apparent KD of MS2 coat protein [3]: 33.7 nM; apparent KD of MS2 coat protein [2]: 96.2 nM; apparent KD of MS2 coat protein [4]: 35.5 nM
23 | ACAAGCUUUGUUGGGUGGUACAUGAGGAUCACCCAUGUUUGCCGCGUCUUGUGGGCCCGGGCCCGCGGCCCGGGCCC [-41.8, -63.9, A 12%] (Eterna round: R97, puzzle: Sensor, turn-off variant 1) | 403 nM | 460 nM | 
24 | ACAAGCUUUGUUGUGGGUGACAUGAGGAUCACCCAUGUUUGCCGCGUCUUGUGGGCCCGGGCCCGCGGCCCGGGCCC [-42.5, -64.4, A 12%] (Eterna round: R97, puzzle: Sensor, turn-off variant 1) | 202 nM | 173 nM | 
25 | ACAAGCUUUUAGAUUUUCAACAUGAGGAUCACCCAUGUUCGUCUUGGGCUAGUGCGAGUGCGGUGUACUCGUAUUAG [JL TOV1 3.83 sellena mod] (Eterna round: R97, puzzle: Sensor, turn-off variant 1) | 23.2 nM | 23.4 nM | 
26 | ACAAGCUUUUCGAUCCUCCACAUGAGGAUCACCCAUGUGCUCGACUUGUAAAGUACUAUCACGAAAGUGAUAGUACA [Sensor, turn off variant 1 v.1] (Eterna round: R97, puzzle: Sensor, turn-off variant 1) | 455 nM | 629 nM | 
27 | ACAAGCUUUUUGCAUGUUAGGUUUGUUGCUUCGUAUGUAACAUGAGGAUCACCCAUGUAUUACUGAUGUCGUCGUUU [JR_SV3TOV2_Sub089] (puzzle: Sensor v3, turn-off variant 2) |  |  | apparent KD of MS2 coat protein [3]: 18.4 nM; apparent KD of MS2 coat protein [2]: 17.2 nM; apparent KD of MS2 coat protein [4]: 18.2 nM
28 | ACAAGCUUUUUGUUCGUCUUAUAAUAAUAAAUAAAUAUAACAUGAGGAUCACCCAUGUUGAGAAGACGGCCUCAUGU [Sesor Array 22 - Jieux - Sensor v3, turn-off variant 2] (puzzle: Sensor v3, turn-off variant 2) |  |  | apparent KD of MS2 coat protein [3]: 134 nM; apparent KD of MS2 coat protein [2]: 31.8 nM; apparent KD of MS2 coat protein [4]: 203 nM
29 | ACAAUUAUGACAGGAUAUAGUUUUUGUUGGUCACUAGAAGGGUCUAUGCACAUGAGGAUCACCCAUGUUCUUUUUAUUUGCGAU [JR_ExcNG1_Sub017] (Eterna round: R96, puzzle: Exclusion NG 1) | 29.9 nM | 39.9 nM | apparent KD of MS2 coat protein [1]: 27.1 nM
30 | ACACAACAUGAGGAUCACCCAUGUCAGGAUAUGCAGAACAAGAACAAGACAAGACAGAGCAGAAGGGACAACAC [Ex 1 M5] (Eterna round: R96, puzzle: Exclusion 1) | 49 nM | 36.3 nM | apparent KD of MS2 coat protein [1]: 29.6 nM
31 | ACACAACAUGAGGAUCACCCAUGUCAGGAUAUGCAGAACAAGAACAAGACAAGACAGAGCAGAAGGGACAACAC [Ex 1 M5] (puzzle: Exclusion 1) |  |  | apparent KD of MS2 coat protein [2]: 32.8 nM
